{"source": "patent US20220056142A1", "about": "(Sanofi, published 2022)", "binders": {"B1": {"name": "KC18 (antibody, V domains shown)", "VH": "QVQLQQSGAELVRPGASVTLSCKASGDTFTDFEIHWVKQTPVHGLEWIGDIDPETGGTAYNQKFRGRAMLTADRSSSTAYMELRSLTSEDSAVYYCTRTYDGYPYAMDYWGQGTSVTVSS", "VL": "DIVMSQSPSSLAVSVGEKVTMSCKSSQSLLYSNNQKNYLAWYQQKPGQSPKLLIYWASTRESGVPDRFTGSGSGTDFTLTISSVKAEDLAVYYCQQYYSYRTFGGGTKLEIKR"}, "B2": {"name": "KC18_Hu46 (antibody, human IgG1, kappa, V domains shown)", "VH": "EVQLVQSGAEVKKPGATVKLSCKASGDTFTDFEIHWVQQAPGKGLEWIGDVDPETGGTAYAEKFQGRATLTADRSTDTAYLELSSLRSEDTAVYYCTRTYDGYPYAFDYWGQGTLVTVSS", "VL": "DIVMTQSPDSLAVSLGERVTINCKSSQSVLYSDNQKNYLAWYQQKPGQSPKLLIYFASTRESGVPDRFSGSGSGTDFTLTISSVQAEDVAVYYCQQYYSYRTFGGGTKLEIKR"}, "B3": {"name": "KE58 (antibody, V domains shown)", "VH": "EVQLQQSGPDLVKPGASVKISCKASGYTVTDYYMNWVKQSHGKSLEWIGDINPNNGVTTYNQKFKDKATLTVDKSSSTAYMELRSLTSEDSAVYYCAREEDFDGFDYWGQGTTLTVSS", "VL": "DIVMTQSHKFMSTSVGDRVSITCKASQDVSTGVAWYQQKPGQSPQLLIYWASTRHTGVPDRFTGSGSGTDYILTIRSVQAEDLALYYCQQHYSTPLTFGAGTKLELK", "notes": "Mouse hybridoma monoclonal antibody"}, "B4": {"name": "KE63 (antibody, V domains shown)", "VH": "B1 VH with D27S, T30S, D50G, R65K, R67K, M69I, T99N, P104S, Y105Q, A106T", "VL": "NIMMTQSPSSLAVSAGEKVTMSCKSSQSVLYSSNQKNYLAWYQQKPGQSPKLLIYWASTRESGVPDRFTGSGSGTDFTLTISSVQAEDLAVYYCHQYLSSYTFGGGTKLEMK", "notes": "as for B3"}, "B5": {"name": "KE94 (antibody, V domains shown)", "VH": "QVQLQQSGAELVRPGASVTLSCKASGSTFTDFEIHWVKQTPVHGLEWIGAIDPETGGTAYNQKFKGKAILTAVKSSSTAYMGLRSLTSEDSAVYYCTRNYDGYSRTMDYWGQGTSVTVSS", "VL": "B4 VL with T78S, T80S, A86T, K108R", "notes": "as for B3"}, "B6": {"name": "KC18_Hu18 (antibody, human IgG1, kappa, V domains shown)", "VH": "B2 VH with L81M", "VL": "not shown"}, "B7": {"name": "KC18_Hu44 (antibody, human IgG1, kappa, V domains shown)", "VH": "B2 VH", "VL": "not shown"}, "B8": {"name": "KE35 (antibody, V domains shown)", "VH": "EVQLQQSGPELVKPGASVKMSCKASGYTFTDYNMHWVKQSHGKSLEWIGYINPNNGGTRYNQKFKGKATLTVNKSSSTAYMELRSLTSEDSAVYYCARERDYDGAMDYWGQGTSVTVSS", "VL": "DIQMTQSPSSLSASLGGKVTITCKASQDINKFIAWYQHKPGKGPRLLIHYTSTLQPGIPSRFSGSGSGRDYSFSISNLEPEDIATYYCLQYDNLLWTFGGGTKLEIK", "notes": "as for B3"}, "B9": {"name": "KE42 (antibody, V domains shown)", "VH": "B8 VH with E46Q, R59N, K63N, G66D, S77T, A105S, Y108F", "VL": "B8 VL with Y87F", "notes": "as for B3"}, "B10": {"name": "KE94 (antibody, V domains shown)", "VH": "B5 VH", "VL": "B4 VL with T78S, T80S, A86T, K108R", "notes": "Mouse monoclonal antibody from a hybridoma; also called anti-FGFR3 antibody KE94"}, "B11": {"name": "KC18 (antibody, V domains shown)", "VH": "B1 VH", "VL": "DIVMSQSPSSLAVSVGEKVTMSCKSSQSLLYSNNQKNYLAWYQQKPGQSPKLLIYWASTRESGVPDRFTGSGSGTDFTLTISSVKAEDLAVYYCQQYYSYRTFGGGTKLEIK", "notes": "Mouse monoclonal antibody from a hybridoma; also called anti-FGFR3 antibody KC18; KC18 mouse antibody"}}, "key": {"[1]": {"biological_target": "T1, FGFR3 fused to β-galactosidase fragments (FGFR3-PK and FGFR3-EA) co-expressed in U2OS cells", "experiment": "cell-based or functional assay"}, "WT PRCs [2]": {"biological_target": "T2, WT PRCs (mouse, UniProt Q61851)", "experiment": "cell-based or functional assay"}, "[3]": {"biological_target": "T1, FGFR3 fused to β-galactosidase …", "experiment": "cell-based or functional assay", "remark": "listed apart in the source"}, "[4]": {"biological_target": "T3, wild-type human FGFR3 isoform IIIc, full length, expressed on transfected cells (human, UniProt P22607 23-806)", "T3 construct": "also called wild-type FGFR3; FGFR3-300.19", "experiment": "FACS, cells transfected with wild-type FGFR3", "method": "(§1) After three washes, the cells were incubated with a fluorescent-conjugated secondary antibody (Invitrogen)."}, "[5]": {"biological_target": "T4, human FGFR3 G380R isoform IIIc, full length, expressed on transfected cells (human, UniProt P22607 23-806)", "T4 construct": "also called mutant FGFR3; FGFR3^G380R-300.19", "experiment": "FACS, cells transfected with mutant FGFR3 (G380R)", "method": "as §1"}, "[6]": {"biological_target": "T1, FGFR3 fused to β-galactosidase …", "experiment": "cell-based or functional assay", "remark": "listed apart in the source"}, "WT PRCs [7]": {"biological_target": "T2, WT PRCs", "experiment": "cell-based or functional assay", "remark": "listed apart in the source"}, "WT PRCs [8]": {"biological_target": "T2, WT PRCs", "experiment": "cell-based or functional assay", "remark": "listed apart in the source"}, "human FGFR3 isoform IIIc": {"biological_target": "T5, human FGFR3 isoform IIIc (human, UniProt P22607 23-375, limits assumed)", "T5 construct": "also called hFGFR3IIIc; FGFR3 IIIc", "T5 sequence": "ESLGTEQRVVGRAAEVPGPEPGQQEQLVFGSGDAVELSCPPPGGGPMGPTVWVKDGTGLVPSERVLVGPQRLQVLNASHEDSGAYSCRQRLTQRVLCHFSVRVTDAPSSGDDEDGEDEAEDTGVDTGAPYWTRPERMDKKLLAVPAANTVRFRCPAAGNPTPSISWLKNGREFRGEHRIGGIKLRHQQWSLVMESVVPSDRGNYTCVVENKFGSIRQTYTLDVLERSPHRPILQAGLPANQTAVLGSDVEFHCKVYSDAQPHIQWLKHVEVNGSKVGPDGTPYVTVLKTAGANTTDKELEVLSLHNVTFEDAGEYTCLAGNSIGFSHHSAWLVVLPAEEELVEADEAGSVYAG", "experiment": "reactivity grade (Table 2); method not given"}, "human FGFR3 isoform IIIb": {"biological_target": "T6, human FGFR3 isoform IIIb (human, UniProt P22607-2 23-377)", "T6 construct": "Isoform IIIb differs from the canonical IIIc entry in the D3 domain; also called hFGFR3IIIb; FGFR3 IIIb", "T6 sequence (looked up)": "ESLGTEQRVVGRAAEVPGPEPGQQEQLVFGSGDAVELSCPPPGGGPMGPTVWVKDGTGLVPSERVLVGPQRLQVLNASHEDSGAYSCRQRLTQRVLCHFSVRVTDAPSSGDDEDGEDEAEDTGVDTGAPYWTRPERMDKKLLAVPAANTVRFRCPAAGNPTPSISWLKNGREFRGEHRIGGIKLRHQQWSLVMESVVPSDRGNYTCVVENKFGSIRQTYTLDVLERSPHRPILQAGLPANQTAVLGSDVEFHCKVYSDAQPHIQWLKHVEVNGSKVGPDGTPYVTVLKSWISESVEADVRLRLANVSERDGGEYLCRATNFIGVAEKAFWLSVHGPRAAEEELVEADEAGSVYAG", "experiment": "reactivity grade (Table 2); method not given"}, "cynomolgus FGFR3": {"biological_target": "T7, cynomolgus FGFR3 (cynomolgus)", "T7 construct": "also called cynoFGFR3", "T7 chain": "T5 sequence with A13V, P17S, G22S, T57A, R94L, R171K", "experiment": "reactivity grade (Table 2); method not given"}, "[9]": {"biological_target": "T8, N-terminal ECD protein of mouse FGFR3 with a terminal avidin tag (mouse, UniProt Q61851 21-369)", "T8 construct": "extracellular domain; not shown: terminal avidin tag", "T8 sequence (looked up)": "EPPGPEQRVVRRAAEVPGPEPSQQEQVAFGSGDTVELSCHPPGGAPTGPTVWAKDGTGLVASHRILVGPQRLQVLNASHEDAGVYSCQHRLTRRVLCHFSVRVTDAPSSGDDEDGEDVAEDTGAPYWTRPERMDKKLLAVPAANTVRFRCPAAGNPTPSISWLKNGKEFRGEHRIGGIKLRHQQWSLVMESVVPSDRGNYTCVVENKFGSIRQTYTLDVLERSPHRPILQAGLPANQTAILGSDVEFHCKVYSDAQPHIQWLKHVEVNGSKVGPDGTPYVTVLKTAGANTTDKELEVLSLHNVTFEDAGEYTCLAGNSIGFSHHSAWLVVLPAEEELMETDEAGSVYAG", "experiment": "SPR (Biacore), FGFR3 ECD immobilised on chip, antibody injected, 1:1 fit"}}, "note": "Substitutions are numbered along the chain they refer to."}
{"binder": "B1", "values": [{"measurement": "EC50, inhibition of FGF18-induced FGFR3 dimerization (RLU, beta-galactosidase complementation in U2OS cells); table column 'KC18 with FGF'", "setting": "[1]", "value": 0.521, "unit": "µg/mL"}]}
{"binder": "B2", "values": [{"measurement": "IC50, inhibition of FGF18-stimulated Erk phosphorylation (pErk/Erk %, HTRF), 'Hu46 on WT PRCs'", "setting": "WT PRCs [2]", "value": 0.55, "unit": "µg/ml"}]}
{"binder": "B3", "values": [{"measurement": "EC50, inhibition of FGF18-induced FGFR3 dimerization (RLU, beta-galactosidase complementation in U2OS cells); fitted curve 'KE58 with FGF18'", "setting": "[3]", "value": 0.423, "unit": "µg/mL"}, {"measurement": "binding result", "setting": "[4]", "value": "binds"}, {"measurement": "binding result", "setting": "[5]", "value": "binds"}]}
{"binder": "B4", "values": [{"measurement": "binding result", "setting": "[4]", "value": "binds"}, {"measurement": "binding result", "setting": "[5]", "value": "binds"}]}
{"binder": "B5", "values": [{"measurement": "EC50, inhibition of FGF18-induced FGFR3 dimerization (RLU, beta-galactosidase complementation in U2OS cells); fitted curve 'KE94 with FGF18'", "setting": "[6]", "value": 0.102, "unit": "µg/mL"}, {"measurement": "binding result", "setting": "[4]", "value": "binds"}, {"measurement": "binding result", "setting": "[5]", "value": "binds"}]}
{"binder": "B6", "values": [{"measurement": "IC50, inhibition of FGF18-stimulated Erk phosphorylation (pErk/Erk %, HTRF), 'Hu18 on WT PRCs'", "setting": "WT PRCs [7]", "value": 0.42, "unit": "µg/ml"}]}
{"binder": "B7", "values": [{"measurement": "IC50, inhibition of FGF18-stimulated Erk phosphorylation (pErk/Erk ratio %, HTRF), 'Hu44 on WT PRCs'", "setting": "WT PRCs [8]", "value": 0.32, "unit": "µg/ml"}]}
{"binder": "B8", "values": [{"measurement": "binding result", "setting": "[4]", "value": "binds"}, {"measurement": "binding result", "setting": "[5]", "value": "binds"}]}
{"binder": "B9", "values": [{"measurement": "binding result", "setting": "[4]", "value": "binds"}, {"measurement": "binding result", "setting": "[5]", "value": "binds"}]}
{"binder": "B10", "values": [{"measurement": "binding result", "setting": "human FGFR3 isoform IIIc", "value": "binds"}, {"measurement": "binding result", "setting": "human FGFR3 isoform IIIb", "value": "binds"}, {"measurement": "binding result", "setting": "cynomolgus FGFR3", "value": "binds"}, {"measurement": "Kd", "setting": "[9]", "value": 2.1, "unit": "nM"}, {"measurement": "koff", "setting": "[9]", "value": 0.00148, "unit": "s⁻¹"}, {"measurement": "kon", "setting": "[9]", "value": 705000, "unit": "M⁻¹ s⁻¹"}]}
{"binder": "B11", "values": [{"measurement": "binding result", "setting": "human FGFR3 isoform IIIc", "value": "binds"}, {"measurement": "binding result", "setting": "human FGFR3 isoform IIIb", "value": "binds"}, {"measurement": "binding result", "setting": "cynomolgus FGFR3", "value": "binds"}, {"measurement": "Kd", "setting": "[9]", "value": 6.3, "unit": "nM"}, {"measurement": "koff", "setting": "[9]", "value": 0.0011, "unit": "s⁻¹"}, {"measurement": "kon", "setting": "[9]", "value": 174000, "unit": "M⁻¹ s⁻¹"}]}
